Data on 41 sequences can be found in the nanobody polyreactivity screen of Harvey et al. (2022).

A short description of this series: yeast display, Sf9 membrane polyspecificity reagent, FACS + sequencing; frameworks hold sequencing errors. Put shortly:
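In a synthetic yeast display library (Saccharomyces cerevisiae BJ5465), nanobody expression was induced with galactose for 36–48 hours. FACS gates were set low and high (top ~1%) using anti-HA fluorescence for expression and streptavidin fluorescence for binding of the Sf9 membrane reagent. Each polyreactivity label is drawn from the gate of origin.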
Consider “QVQLEESVGGLVQAGGSLRLSCAASGFIFPYYTMGWYRQAPGKERELVAAISRTAVGTYYADSVKGRFTISRDNAKNTVYLQMNSLKPEDTAVYYCAVVTQRKYDYWGQGTQVTVSS”, for which the “polyreactivity (PSR sort gate)” value is listed as “high polyreactivity”. “QVQLEESVGGLVQAGGSLRLSCAASGRIFTPYAMGWYRQAPGKERELVATISRGTSTSYADSVKGRFTISRDNAKNTVYLQMNSLKPEDTAVYYCAALGPRTTFRYTSYYYWGQGTQVTVSS”: the “polyreactivity (PSR sort gate)” value is on record as “high polyreactivity”. The result for “QVQLEETGGGLVQAGGSLRISCAASGFIFSYNAMGWYRQAPGKERELVATITRRGGGTTYADSVKGRFTISRDNAKNTVYLQMNSLIPEDTAVYYCNRDVNSKLSFGSVGYDYWGQGTQVTVSS” reads “low polyreactivity”. The result for “QVQLEETGGGLVQAGGSLRLSCAASGFTIYRYALGSYRQAPGKERELVAAISSRGGTTYYADSVKGRFTISRDNAKNTVYLQMNSLKPEDTAVYYCNAGYYLTLDYWGQGTQVTVSS” reads “high polyreactivity”; that for “QVQLEETGGGLVQAGGSLRLSCAASGRIFWWYAMGWYRQAPGKERELVAVIDDSGGITYYADSVKGRFTISRDNAKNTVYLQMNSLKPEDTAVYYCARNVNAQKVLAGFDYWGQGTQVTVSS”, “low polyreactivity”; that for “QVQLGDSGGGLLQAGGSLRLSCAASGRTFYYNALGWYRQAPGKERELVARIRSGGSTNYADSVKGRFTISRDNAKNTVYFQMNSRKPEDTAVYYCNALGAKGYVKGFDYWGLGTQVTVSS”, “low polyreactivity”. The result for “QVQLGESGGGIVQAGGSLRLSCAASGRTFPYNVMGWYRQAPGKERELVAGITGSGDSTFYADSVKGRFTISRDHAKNTVYLQMNSLKPEDTAVYYCAARYRTLNDGYIRNYWGQGTQVTVSS” reads “low polyreactivity”; that for “QVQLGESGGGLCQAGGSLRLSCAASGSIIAGYTMGWYRPAPGNARELVAGIRRGGSTNYADSVKGRVTISRDNAKNTVYLQMNSLKPEDTAVYYCNAQLTRSYVLRTFDYWGQGTQVTVSS”, “high polyreactivity”. With “QVQLGESGGGLLPAGGSLGLSCAASGSTFGYYAMGWDRQAPGKERELVAAINSGDSTSYADSVKGRFTISRDNAKTTLYLQMNSMKPEDTAVYYCAVRPRRHQYGYWGQGTQVTLSS”, the “polyreactivity (PSR sort gate)” value was “low polyreactivity”. “QVQLGESGGGLLQAGGSLRLSCAASGFTFYGYAMGWYRQAPGKERELVAAISRRGGSTYYADSVKGRFTISRDNAKYTVYVQMNSLKPEDTAVYYCITLFSHLRDRYDYWGQGTEVTVSS”: the “polyreactivity (PSR sort gate)” value is “high polyreactivity”.

“QVQLGESGGGLVKAGGSLRLSCAASGRIFFDYGMGGYRQAPGKERELVADITRGGGSTYYADSVKGRFTISRDNAKNTVYLQINSQKPEDTAVYYCAKESSCYYPQRFDYWGQVTQVTVSS”: the “polyreactivity (PSR sort gate)” value is “low polyreactivity”. The result for “QVQLGESGGGLVQAGGILRLSCAASGRIFPQYAMGWYRQAPGKERELVAGITSVGSTYYADSVKGRFTISRDNAKNTVYLQMNSLKPEDTAVYFCAAVPSRYVRANRRTYRYYYWGKGTQVTVSS” reads “high polyreactivity”; that for “QVQLGESGGGLVQAGGSLRLICAASGFIFTTYVMGWYRQAPGKERELVAVISRSGGRTYYADSVKGRFTISRDNEKYTVYLLMNSLKPEDTAVYYCNVDIPVLSHIEYYYWGQGTQVTVSS”, “low polyreactivity”; that for “QVQLGESGGGLVQAGGSLRLICAASGLTFSYNDMGWYRQAPGKERELVAGITSNGGSTYYADSVKGRFTITRDNAKNTVYLQMNSLNPEDTAVYYCAAEQYVGVKPFLSDSWGQGNQVTVSS”, “low polyreactivity”. In the case of “QVQLGESGGGLVQAGGSLRLICAASGRTFKKYPMGWYRQAPGKERDVVAAISWSGGTTYYAHSEKGRFTISRDTAKNTVYLQMNSLKPEDTAVYYSAARVSRTGHGYYYYWGQVTQVTVSS”, the “polyreactivity (PSR sort gate)” value is “high polyreactivity”. The result for “QVQLGESGGGLVQAGGSLRLSCAASGFTFHKNAMGWYRQAPGKERELVAVISQSASSTYYSDSVKGRFTISRDIAKITVYLQMNGLKPEDTAVYYCNAKYYRYNRRNYWGQGTQVTVSS” reads “high polyreactivity”; that for “QVQLGESGGGLVQAGGSLRLSCAASGFTFHLYAMGWYRQAPGKERELVAAISQSGDSTYYADSVKGRFTISRDNAKNTVYLQMNSLKPDDTAVYYFNADNDGVVWSYPFDFDYWGQGTQVTVSS”, “low polyreactivity”; that for “QVQLGESGGGLVQAGGSLRLSCAASGGIFAENAIGRYRQAPGKERELVAAINGGGSTKYADSVKGRFTISRDNAKNTVYLQMNSLKPEDTAVYYCAADPSVPRQVDYWGQGTLVTVSS”, “low polyreactivity”. The result for “QVQLGESGGGLVQAGGSLRLSCAASGGIFGKYAMGWYRQAPGKERELVAAISGGSRTNYADSVKGRFTISRDNAKNTVYLQMNSLKPEDTAVYYCAARYAYSAQRLYYWGQGTQVTVSS” reads “high polyreactivity”; that for “QVQLGESGGGLVQAGGSLRLSCAASGIILHGYAMGWYRPAPGKEREFVATITLSGSSTYYADSVKGRFTISRDNAKNTVYLQMNSRKAEDTAVYYSAARTWVIVYGLQYDYWGHGTQVTVSS”, “high polyreactivity”. On to “QVQLGESGGGLVQAGGSLRLSCAASGITFTKYVMGWYRQAPGKERELVATIRWGASSTHYADSVKGRFTISRDNAKNTVYLQMNSLKPEDTAVYYCNADGWYGAVYWWFYGFDYWGQGTQVTVSS”, for which the “polyreactivity (PSR sort gate)” value was “low polyreactivity”. For “QVQLGESGGGLVQAGGSLRLSCAASGLIFPRYAMGWYRQAPGKERELVAAITRGGSTYYADSVKGRFTISRDNAKNTVYVQMNSLKPEDSAVYYCNDELPVHWSWYDYWGQGTQVTVSS”, the “polyreactivity (PSR sort gate)” value is “low polyreactivity”. The result for “QVQLGESGGGLVQAGGSLRLSCAASGRIFASNAMGWYRPAPGKESELVAAIDQSGGSTYYADSVKGRFTISRDNAKNTVYLQMNSLKPEDTAVYYCAARAYLISSSTPFWTGYDSWGQGTQVTVSS” reads “low polyreactivity”.

With “QVQLGESGGGLVQAGGSLRLSCAASGRTFDKNAMGWYRQAPGKERELVATISSGGSTYYADSVKGRFTISRDNAKNTVYLQMNSLKPEDTAVYYCNARGVRATRRRYGYWGQGTQVTVSS”, the “polyreactivity (PSR sort gate)” value is “low polyreactivity”.

In the case of “QVQLGESGGGLVQAGGSLRLSCAASGRTFGPYAMGWYRQAPGKERELVAAIRYIDDSTFYADSVKGRFTISRDTAKNTVYLQMNSLKPEDTAVYYCAARPYPHSAYEGDYWGRGTQVTVSS”, the “polyreactivity (PSR sort gate)” value is recorded as “low polyreactivity”. The result for “QVQLGESGGGLVQAGGSLRLSCAASGRTFYWYTMGWYRQAPGKESELVAAISTRGVRTYYADSVKGRFTISRDNAKNTVYLQMNSLKPADTAVYYCNNYVAYDYWGQGTQVTVSS” reads “low polyreactivity”.

For the sequence “QVQLGESGGGLVQAGGSLRLSCAASGRTLWFYAMGWYRQAPGKERELVAAISSGGSTNYGDSVKGRFTISRDNAKNTVYLQMNSLKPEDTAVYYCAKVGNIPYGTRYDSNRYDYWGQGTQVTVSS”, the “polyreactivity (PSR sort gate)” value is “low polyreactivity”. The result for “QVQLGESGGGLVQAGGSLRLSCAASGSIFPDNTMGWYRPATGKEWELVAAIDGRGGTTYYADSVKGRFTISRDNAKNTVYLQMNSLKPEDTAVYYCARDIGHSARYDYWGQGTQVTVSS” reads “low polyreactivity”; that for “QVQLGESGGGLVQAGGSLRLSCAASGSIFSDYAMGWYRQAPGKERELVAAIRYRGGRTYYADSVKGRFTISRDNAKNTVYLQMNSLKPEDTAVYYCNADVIRRGGSRYSTGREFDYWGQGTQVTVSS”, “high polyreactivity”; that for “QVQLGESGGGLVQAGGSLRLSCAASGSTFAKYAMGWYRQAPGKERELVAAISSSGTCTYYADSVKGRFTISRDNAKNTVYLQMNSRKPEDTAVYYCAASYRNRYIAFYYWGQGTQVTVSS”, “low polyreactivity”. The result for “QVQLGESGGGLVQAGGSLRLSCAASGSTFDYYAMGWYRQAPGKERELVAGITSDGSTYYADSVKGRFTISRDNAKNTVYLQMNSLKPEDTAVYYCNKDSTGDGYEYWGQGTQVTVSS” reads “low polyreactivity”; that for “QVQLGESGGGLVQAGGSLRLSCAASGSTFGRYVMGWYRQAPAKERELVDAISKNAGSTYYADSVKGRFTISRDIAKKTVYLQMNSLKPEDTAVYYCAADWRTKGYDSLGQGTQVTVSS”, “high polyreactivity”; that for “QVQLGESGGGLVQAGGSLRLSCAASGSTFTRYGMGWYRQAPGKERELVAAITTSGSSTYYADSVKGRFTISRDNAKNTVYLQMNSLKPEDTAVYYCAADWSSWGFDYWGQGTQVTVSS”, “low polyreactivity”. The result for “QVQLGESGGGLVQAGGSLRLSCAPTGRTFVRNAIGWYRPAPGKERELVAAISYSGGSTTYADSVKGRFTISRDNAKNTVYLQMNSLKPADTAVYYCAKKPPVGEPSGREYWGQGTQVTVSS” reads “low polyreactivity”.

As for “QVQLGESGGGLVQAGGSLRLSCVASGFIFRGNAMGWYRQAPGKERELVATISSGGNTYYADSVKGRFTISRDNAKNTVYLQINSLKPEDTAVYYCNASDGLPTKLNVYVEFDYWGQGTQVTVSS”, the “polyreactivity (PSR sort gate)” value is “low polyreactivity”. The result for “QVQLGESGGGLVQAGVSLRLSCAASGNTFYWNAMGWYRQAPGKERELVAAISTTGVSTYYADSVKGRFTISRDNAKNTVYLQMNSLKPEDTAVYYCAVDPPYSNPITINEDYWGQGTQVTVSS” reads “low polyreactivity”. The result for “QVQLGESGGGLVQSGGSLRLSCAASGIIFRNYAMGWYRPAPGKERELVATITGDGGSTYYADSVKGRFTISRDNAKNTVYFQMNSLKPEDTAVYYCAAEYHHYYYYWGEYWGQGTQVTVSS” reads “low polyreactivity”. The result for “QVQLGESGGGLVQSGGSLRLSCAASGYIFNHNAMGWYRQAPGKEWELVAGISIGGSTYYADSVKGRFTISRDNAKNTVYLQMNRLIPEDTAVYYCNTQPPLIYRGVKSDYSGQGTQVTVSS” reads “low polyreactivity”; that for “QVQLGESGGGVVQAGVSLRLSCAASGSTFTLYAMGWYRQAPGKERELVAAINGAGSTYYADSVKGRFTISRDNAKNTVYLQMNSLKPEDTAVYYCAKDLKYGWSDYWGQGTQVTVSS”, “low polyreactivity”. On to “QVQLGESGGSLVQAGASLRLSCAASAITFYGNAMGWYRQAPGKERELVAAIRRGGSTNYADSVKGRFTISRDNAKKTVYLQMNSLKPEDTAVYYCAADSYGYTFRNYRVGYWGHGTQVTVSS”, for which the “polyreactivity (PSR sort gate)” value is “high polyreactivity”. The result for “QVQLGESGGVLVQAGGSLRLSCSASGSTFYSNAMGWYRQAPVKEREFVAAITGSGGSTYYADSVKGRFTISRDNAQNTVYLQMNSLKPEVTAVYYCAAGTRIYNSWIRFDYWGQGTQVTVSS” reads “high polyreactivity”.
